Assay results as given in patent CN1649900A (dated 2005).
Substitutions are numbered along the chain they refer to. Where no end group is shown, it is not given here. [ ]: non-standard residue; d: D form. sY = N[C@@H](Cc1ccc(OS(=O)(=O)O)cc1)C(=O)O

B1: F-YY, non-sulfated peptide from the fibrinogen γ prime chain (peptide)
peptide: VRPEHPAETEYESLYPEDDL
B2: Y1-IgG (full-size IgG1 lambda antibody built from the Y1 Fv) (antibody)
chain 1: EVQLVESGGGVVRPGGSLRLSCAASGFTFDDYGMSWVRQAPGKGLEWVSGINWNGGSTGYADSVKGRFTISRDNAKNSLYLQMNSLRAEDTAVYYCARMRAPVIWGQGTLVTVSR
chain 2: SELTQDPAVSVALGQTVRITCQGDSLRSYYASWYQQKPGQAPVLVIYGKNNRPSGIPDRFSGSSSGNTASLTITGAQAEDEADYYCNSRDSSGNHVVFGGGTKLTVLG
B3: S-S Y1 dimer (disulfide-bridged dimer of Y1 scFv with a cysteine added at the carboxy terminus) (other)
chain: EVQLVESGGGVVRPGGSLRLSCAASGFTFDDYGMSWVRQAPGKGLEWVSGINWNGGSTGYADSVKGRFTISRDNAKNSLYLQMNSLRAEDTAVYYCARMRAPVIWGQGTLVTVSRGGGGSGGGGSGGGGSSELTQDPAVSVALGQTVRITCQGDSLRSYYASWYQQKPGQAPVLVIYGKNNRPSGIPDRFSGSSSGNTASLTITGAQAEDEADYYCNSRDSSGNHVVFGGGTKLTVLGAAAEQKLISEEDLNGAAC
B4: Y1 scFv (human single-chain Fv antibody fragment Y1) (scFv)
scFv: EVQLVESGGGVVRPGGSLRLSCAASGFTFDDYGMSWVRQAPGKGLEWVSGINWNGGSTGYADSVKGRFTISRDNAKNSLYLQMNSLRAEDTAVYYCARMRAPVIWGQGTLVTVSRGGGGSGGGGSGGGGSSELTQDPAVSVALGQTVRITCQGDSLRSYYASWYQQKPGQAPVLVIYGKNNRPSGIPDRFSGSSSGNTASLTITGAQAEDEADYYCNSRDSSGNHVVFGGGTKLTVLGAAAEQKLISEEDLNGAA
notes: Clone from the Nissim I phage display library; Used biotinylated in Western blots; detected with rabbit anti-scFv or anti-VL in FACS and ELISA; also called scFv Y1; scFv-Y1
B5: Y17 scFv (scFv)
scFv: B4 scFv with M99L, R100T, A101H, V103Y, I104F
notes: Second scFv clone selected on platelets
B6: CONY1, Y1 scFv monomer in which the myc tag is deleted or replaced by Lys-Ala-Lys (KAK) (scFv)
scFv: EVQLVESGGGVVRPGGSLRLSCAASGFTFDDYGMSWVRQAPGKGLEWVSGINWNGGSTGYADSVKGRFTISRDNAKNSLYLQMNSLRAEDTAVYYCARMRAPVIWGQGTLVTVSRGGGGSGGGGSGGGGSSELTQDPAVSVALGQTVRITCQGDSLRSYYASWYQQKPGQAPVLVIYGKNNRPSGIPDRFSGSSSGNTASLTITGAQAEDEADYYCNSRDSSGNHVVFGGGTKLTVLG
notes: also called CONY1 scFv; Y1-kak
B7: F-Y*Y*, sulfated peptide from the fibrinogen γ prime chain (peptide)
peptide: VRPEHPAETE[sY]ESL[sY]PEDDL

Legend:
[1] = biological target: B4; assay: competition ELISA, Y1 scFv on glycocalicin, peptide 1, 10, 100 μM
[2] = biological target: T1, PSGL-1 (P-selectin glycoprotein ligand-1, CD162) on KG-1 cells or in KG-1 membrane preparations (human, UniProt Q14242 42-412, sulfated tyrosines in the N-terminal region); assay: radioreceptor competition on KG-1 cells, tracer 125I-Y1-IgG 2 ng/tube
T1 construct: whole, on cells; entries on KG-1 cells, lysates and membrane fractions are written against this molecule; also called KG-1细胞上Y1配体
T1 sequence (looked up): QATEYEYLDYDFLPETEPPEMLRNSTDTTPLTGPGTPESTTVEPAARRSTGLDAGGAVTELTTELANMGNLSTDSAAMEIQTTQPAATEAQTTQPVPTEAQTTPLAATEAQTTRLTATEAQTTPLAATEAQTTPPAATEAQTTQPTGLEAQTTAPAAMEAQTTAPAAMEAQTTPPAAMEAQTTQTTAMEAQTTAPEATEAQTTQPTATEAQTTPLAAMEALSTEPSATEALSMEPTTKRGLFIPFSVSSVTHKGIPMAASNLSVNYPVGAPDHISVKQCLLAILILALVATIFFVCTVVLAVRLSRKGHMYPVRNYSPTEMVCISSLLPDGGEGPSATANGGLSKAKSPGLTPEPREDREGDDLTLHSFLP

[3] = biological target: T1, PSGL-1 (P-selectin glycoprotein …); assay: radioreceptor assay, ELISA and FACS
[4] = biological target: T1, PSGL-1 (P-selectin glycoprotein …); assay: second radioreceptor competition on KG-1 cells, labelled CONY1
[5] = biological target: T1, PSGL-1 (P-selectin glycoprotein …); assay: Western blot
[6] = biological target: T2, human lumican from plasma (human, UniProt P51884 19-338); assay: binding to human plasma proteins
T2 construct: also called H P-配体2
T2 sequence (looked up): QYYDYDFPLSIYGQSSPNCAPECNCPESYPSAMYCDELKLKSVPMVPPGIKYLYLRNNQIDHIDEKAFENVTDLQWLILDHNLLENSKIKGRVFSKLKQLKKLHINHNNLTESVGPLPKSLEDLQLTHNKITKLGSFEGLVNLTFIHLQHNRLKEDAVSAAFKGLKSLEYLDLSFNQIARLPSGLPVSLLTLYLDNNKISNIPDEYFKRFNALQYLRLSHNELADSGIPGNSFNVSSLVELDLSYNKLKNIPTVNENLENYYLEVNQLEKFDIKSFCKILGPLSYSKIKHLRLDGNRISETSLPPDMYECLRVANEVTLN

[7] = biological target: T1, PSGL-1 (P-selectin glycoprotein …); assay: FACS on KG-1 cells

B1
binding result [1]: no binding (tested: 100μM)

B2
Kd [2]: ~20 nM

B3
fold binding over Y1 scFv monomer [3]: ≥ 20 fold | Kd [4]: 50 nM | fold higher affinity than CONY1 [4]: 20 fold | Kd [2]: 40 nM | fold higher avidity than CONY1 [2]: 30 fold | fold lower avidity than the whole Y1 antibody [2]: 2 fold

B4
binding result [5]: binds | binding result [6]: binds

B5
binding result [7]: binds

B6
Kd [4]: ~1000 nM

B7
binding result [1]: no binding (tested: 100μM)
